Results taken from patent US20240279611A1, “EXOSOME PRODUCTION PROMOTING AGENT AND EXOSOME PRODUCTION PROMOTING METHOD” (FULLSTEM CO., LTD., priority 2021, published 2024).

Test system: adipose-derived mesenchymal stem cells (ADSC)
Assay: Amount of exosomes produced from ADSC, measured with Exo Counter (CD81 sandwich immunoassay) after excluding single factors
Format: cell-based
Settings: 48-hour culture in DMEM F12 on nonwoven fabric; one factor excluded from the eight factors of Table 1, compared with all eight added; CD81 on exosome surface detected in culture supernatant; FIG. 1
Protocol: 4×10^4 adipose-derived mesenchymal stem cells (ADSC) were seeded in each well. A nonwoven fabric (3D, BioNOCII, CESCO BIOENGINEERING CO., LTD. in non-adhesive 24 well plate (PrimeSurface (registered trademark) Sumitomo Bakelite Co., Ltd.) was used for cell culture. A basal medium was 1.5 ml of 10% FBS/DMEM F12 (Sigma-Aldrich). The number of days of culture was 6. Starting from Day 2, 1.5 ml of medium was exchanged daily, and the amount of sugar consumed in the used culture medium was measured.
Next, in the cell culture for 48 hours on Day 7 and Day 8, DMEM F12 was used as a medium so as to collect exosomes. In this 48-hour culture, 10% ExoFBS (Funakoshi Co., Ltd.) was added in Test #1. ExoFBS is a product from which bovine-derived exosomes are removed; therefore, influence on an exosome research is reduced.
In Test #3 of the 48-hour culture, only factor A was excluded from the eight factors shown in Table 1, and the other factors were added. In Test #4 of the 48-hour culture, only factor B was excluded from the eight factors shown in Table 1, and the other factors were added. […]
The amount of exosomes produced from ADSC was measured with Exo Counter (Kenwood), using 50 μl each from 1.5 ml of the collected culture supernatant. […] CD81 on the exosome surface was detected to quantify the exosome amount.

B1: SCGF (protein, UniProt Q9Y240 22-323, looked up)
C-type lectin domain family …: ARGAEREWEGGWGGAQEEEREREALMLKHLQEALGLPAGRGDENPAGTVEGKEDWEMEEDQGEEEEEEATPTPSSGPSPSPTPEDIVTYILGRLAGLDAGLHQLHVRLHALDTRVVELTQGLRQLRNAAGDTRDAVQALQEAQGRAEREHGRLEGCLKGLRLGHKCFLLSRDFEAQAAAQARCTARGGSLAQPADRQQMEALTRYLRAALAPYNWPVWLGVHDRRAEGLYLFENGQRVSFFAWHRSPRPELGAQPSASPHPLSPDQPNGGTLENCVAQASDDGSWWDHDCQRRLYYVCEFPF
notes: 29-kDa protein having no N-type sugar chain, belongs to a C-type lectin family
effect of the factor on the amount of exosomes produced: inhibits the production of exosomes
